The source of these data is patent EP2170953B1.

Assay [1] addresses Aβ1-42 peptide, monomer-enriched preparation. The assay is described as follows: ELISA mean of 3, Ab 1:1 of 0.5 µg/ml. Background: An ELISA detects its analyte on a solid surface through an enzyme-linked reagent.
In assay [2] the target is Aβ1-42 peptide, oligomer-enriched preparation. The experiment in a line: ELISA mean of 3, Ab 1:1 of 0.5 µg/ml.
Sequence of Aβ1-42 peptide, oligomer-enriched preparation (peptide, as listed by the source, form in doubt): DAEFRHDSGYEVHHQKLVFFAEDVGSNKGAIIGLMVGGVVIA

Sequence of Aβ1-42 peptide, monomer-enriched preparation (peptide, as listed by the source, form in doubt): as above

On to 6E10 control antibody, for which the O.D. (mean) stood at 3.83 O.D in assay [1] and 3.64 O.D in assay [2].
